This test concerns the target C-terminally FLAG-tagged HPIV3 P protein (P-FLAG) (human parainfluenza virus type 3 (HPIV3)) (UniProt P06162). The test is described as follows: co-IP.
Sequence of UniProt P06162 (P06162 whole entry): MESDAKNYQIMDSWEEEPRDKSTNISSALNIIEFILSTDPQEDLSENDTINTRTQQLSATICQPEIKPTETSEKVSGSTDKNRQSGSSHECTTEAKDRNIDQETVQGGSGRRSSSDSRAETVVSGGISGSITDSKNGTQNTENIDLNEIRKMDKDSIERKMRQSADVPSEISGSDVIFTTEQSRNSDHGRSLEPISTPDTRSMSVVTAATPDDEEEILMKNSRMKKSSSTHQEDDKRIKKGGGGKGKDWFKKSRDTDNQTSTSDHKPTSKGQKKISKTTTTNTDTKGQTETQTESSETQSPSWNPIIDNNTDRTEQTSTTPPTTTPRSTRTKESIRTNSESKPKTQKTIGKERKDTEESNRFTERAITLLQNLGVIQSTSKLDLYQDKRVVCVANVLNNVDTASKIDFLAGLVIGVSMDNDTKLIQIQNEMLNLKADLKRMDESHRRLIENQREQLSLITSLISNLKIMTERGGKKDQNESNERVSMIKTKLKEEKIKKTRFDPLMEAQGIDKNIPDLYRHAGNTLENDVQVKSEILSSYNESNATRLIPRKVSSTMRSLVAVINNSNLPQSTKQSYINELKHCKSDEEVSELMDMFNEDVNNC

In the case of “L N960, non-tagged (from UniProt P12577 1-960) (domain or fragment)”, the binding as percent of Lwt (phosphoimager) was 26.8 % of Lwt.
